Data published in patent US20170342155A1 (Amgen, published 2017).

T1: wild-type murine CCR7 (pcDNA3.1 Neo-mouseCCR7, 20060298628) (mouse, UniProt P47774 25-378)
T1 construct: Full open reading frame as printed; Expressed on transfected 293T cells; also called mCCR7; wild-type murine CCR7 receptor
T1 sequence: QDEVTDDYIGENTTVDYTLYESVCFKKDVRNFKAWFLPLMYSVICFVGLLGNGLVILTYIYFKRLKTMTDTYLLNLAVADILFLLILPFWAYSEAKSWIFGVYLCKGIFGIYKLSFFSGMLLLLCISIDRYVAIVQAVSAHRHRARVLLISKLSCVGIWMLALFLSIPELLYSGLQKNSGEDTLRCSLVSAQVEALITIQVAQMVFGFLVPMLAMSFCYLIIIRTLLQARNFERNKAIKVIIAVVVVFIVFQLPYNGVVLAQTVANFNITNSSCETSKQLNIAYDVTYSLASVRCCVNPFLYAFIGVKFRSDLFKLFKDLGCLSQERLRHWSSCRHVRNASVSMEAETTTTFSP

T2: human CCR7 variant S49F (20100122627) (human, UniProt P32248 25-378)
T2 sequence: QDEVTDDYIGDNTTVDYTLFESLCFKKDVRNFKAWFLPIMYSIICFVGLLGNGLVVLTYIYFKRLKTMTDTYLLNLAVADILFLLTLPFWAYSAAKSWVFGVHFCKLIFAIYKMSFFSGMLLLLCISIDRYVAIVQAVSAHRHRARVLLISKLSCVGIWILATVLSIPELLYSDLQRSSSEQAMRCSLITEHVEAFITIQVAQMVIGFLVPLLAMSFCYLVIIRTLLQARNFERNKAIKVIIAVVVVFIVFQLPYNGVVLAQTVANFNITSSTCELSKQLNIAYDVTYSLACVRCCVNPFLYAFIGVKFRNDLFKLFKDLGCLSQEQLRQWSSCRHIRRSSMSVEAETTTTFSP

T3: human CCR7 variant H127Y (20100135009) (human, UniProt P32248 25-378)
T3 sequence: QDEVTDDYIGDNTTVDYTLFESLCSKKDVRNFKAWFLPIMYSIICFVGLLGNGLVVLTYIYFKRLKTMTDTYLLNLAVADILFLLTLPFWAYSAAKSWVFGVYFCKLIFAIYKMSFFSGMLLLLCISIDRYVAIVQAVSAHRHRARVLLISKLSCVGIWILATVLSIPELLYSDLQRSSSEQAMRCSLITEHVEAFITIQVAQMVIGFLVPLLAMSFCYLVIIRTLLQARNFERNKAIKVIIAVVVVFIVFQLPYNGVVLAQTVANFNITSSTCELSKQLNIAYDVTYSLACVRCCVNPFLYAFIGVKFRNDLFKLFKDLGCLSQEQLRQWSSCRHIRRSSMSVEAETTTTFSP

T4: human CCR7 variant S204G (20100171269) (human, UniProt P32248 25-378)
T4 sequence: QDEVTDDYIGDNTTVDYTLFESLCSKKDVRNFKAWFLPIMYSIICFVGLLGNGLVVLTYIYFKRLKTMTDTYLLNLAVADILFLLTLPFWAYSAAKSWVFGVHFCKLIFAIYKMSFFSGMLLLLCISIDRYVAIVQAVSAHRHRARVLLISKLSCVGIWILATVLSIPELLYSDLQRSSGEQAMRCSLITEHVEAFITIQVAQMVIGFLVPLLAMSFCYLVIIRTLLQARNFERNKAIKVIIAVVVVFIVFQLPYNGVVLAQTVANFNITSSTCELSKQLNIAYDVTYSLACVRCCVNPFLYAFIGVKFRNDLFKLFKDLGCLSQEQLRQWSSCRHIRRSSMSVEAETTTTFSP

T5: murine CCR7 Y44F/V47L/K201R/N202S/G204S/T207A/L208M construct 20110105423 (mouse, UniProt P47774 25-378)
T5 construct: Murine CCR7 with seven human residues; also called YVKNGTL; construct YVKNGTL
T5 chain: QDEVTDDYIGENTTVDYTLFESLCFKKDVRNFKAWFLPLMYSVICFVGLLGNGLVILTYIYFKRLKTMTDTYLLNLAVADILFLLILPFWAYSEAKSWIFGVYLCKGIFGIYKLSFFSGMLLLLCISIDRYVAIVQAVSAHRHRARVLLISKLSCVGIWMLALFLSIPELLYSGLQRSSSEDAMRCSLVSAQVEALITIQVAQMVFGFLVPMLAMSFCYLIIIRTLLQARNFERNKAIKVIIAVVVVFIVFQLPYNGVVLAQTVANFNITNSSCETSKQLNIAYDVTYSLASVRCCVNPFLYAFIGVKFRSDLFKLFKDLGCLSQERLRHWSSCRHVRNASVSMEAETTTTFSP


Legend:
[1] = molecular target: T1, wild-type murine CCR7 (pcDNA3.1 …); experiment: flow cytometry on transfected 293T cells
Description: 293T cells were transfected with each of the 22 constructs using Fugene HD Transfection Reagent (Cat #: 04709705001) (Roche Applied Sciences, Indianapolis, Ind.) according to manufacturer's protocol. DNA to Fugene HD ratio used was 1:3. […] After 48 hours, transfected cells were harvested and washed with PBS+5% FBS two times. Cells were counted using the Nexcelom Cell Counter (Nexcelom Bioscience, Lawrence, Mass.), and 250,000 cells per well were plated in a 96 well round bottom plate. Cells transfected with each construct were stained in duplicate as follows: unstained control, 6B4.1 primary Ab followed by Goat anti-human-PE secondary Ab, 6B5.1 primary Ab followed by Goat anti-human-PE secondary Ab, mAb197 primary Ab followed by Goat anti-mouse-PE secondary Ab, and the controls of secondary Ab Goat anti-mouse-PE only and Goat anti-human-PE only. The cells were visualized by flow cytometry and geo means were generated and analyzed.

[2] = molecular target: T2, human CCR7 variant S49F (20100122627); experiment: flow cytometry on transfected 293T cells, PE secondary antibody, geo mean
[3] = molecular target: T3, human CCR7 variant H127Y (20100135009); experiment: as above
[4] = molecular target: T4, human CCR7 variant S204G (20100171269); experiment: as above
[5] = molecular target: T5, murine CCR7 …; experiment: as above

| binding result [1] | binding result [2] | binding result [3] | binding result [4] | binding result [5] | Binder |
| --- | --- | --- | --- | --- | --- |
| no binding | binds | binds | binds | binds | antibody 6B4.1 (antibody, V domains shown, Human antibody from XenoMouse hybridoma; Light = 2 and heavy = 42 is inferred from the order of the listing (light chains first)) VH: QVQLVESGGGVVQPGRSLRLSCAASGFTFSSYGMHWVRQAPGKGLEWVAVIWYDGSKKYYADSVKGRFTISRDNSKNTLYLQMNRLRAEDTAVYYCARDGGIAVFLQDNWFDPWGQGTLVTVSS VL: SYELTQPPSVSVSPGQRARITCSGDKLGDKYASWYQQKPGQSPLLVIYQDSKRPSGIPERFSGSNSGNTATLTISGTQAMDEADYYCQAWGSSTVIFGGGTKLTVLG |
| no binding | binds | binds | binds | binds | antibody 6B5.1 (antibody, human IgG2, lambda, V domains shown, Human antibody from XenoMouse hybridoma; Light = 18 and heavy = 50 is inferred from the order of the listing) VH: QVQLVESGGGVVQPGRSLRLSCAASGFTFRSYGMHWVRQAPGKGLEWVAVIWYDGSKKYYADSVKGRFTISRDNSKNTLYLQMNRLRAEDTAVYYCARDGGIAVFLEDNWFDPWGQGTLVTVSS VL: SYELTQPPSVSVSPGQRASITCSGDKLGDKYASWYQQKPGQSPLLVIYQDGKRPSGIPERFSGSNSGNTATLTISGTQAMDEADYYCQAWGSSTVIFGGGTKLTVLG |
